Source: patent publication US20230052646A1 (JJP BIOLOGICS SP Z O O, published 2023)

T1: membrane-bound full-length human HVEM on stable HVEM-transfected HEK293F cells (clone no. 128) (human, UniProt Q92956 39-283)
T1 construct: The same cDNA was also expressed on Sf9 insect cells; also called TNFRSF14; CD270
T1 sequence: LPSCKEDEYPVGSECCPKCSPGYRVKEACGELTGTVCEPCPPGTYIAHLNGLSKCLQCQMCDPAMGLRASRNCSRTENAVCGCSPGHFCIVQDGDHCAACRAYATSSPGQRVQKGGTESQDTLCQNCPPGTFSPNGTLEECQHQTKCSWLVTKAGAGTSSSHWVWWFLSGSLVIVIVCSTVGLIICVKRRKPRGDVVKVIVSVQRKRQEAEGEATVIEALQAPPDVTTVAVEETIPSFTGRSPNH

T2: membrane-bound 'CRD1 truncated' human HVEM on transiently transfected HEK293F cells (human, UniProt Q92956 76-283)
T2 construct: aa 1-19 are a mouse Ig signal peptide and are left out; Starts with CRD2; also called human HVEM deleted for CRD1; CRD1 truncated HVEM
T2 sequence: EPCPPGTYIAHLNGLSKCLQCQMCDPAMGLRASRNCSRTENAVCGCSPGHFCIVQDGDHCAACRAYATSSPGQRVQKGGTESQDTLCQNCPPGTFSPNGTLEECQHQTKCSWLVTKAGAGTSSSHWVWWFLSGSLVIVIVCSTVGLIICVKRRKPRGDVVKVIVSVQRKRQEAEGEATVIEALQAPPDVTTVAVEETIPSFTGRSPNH


Experiments:
[1] = molecular target: T1, membrane-bound full-length human HVEM …; assay: FACS, Ab 10 µg/mL then biotinylated BTLA on HVEM-HEK293F
Procedure: (§1) Generation of human ‘full-length’ HVEM-transfected HEK293F cells (clone no. 128) is described in Example 1a. Binding of soluble human BTLA, of soluble human CD160, of soluble human LIGHT, and of soluble human TNFβ on surface human HVEM-transfected cells was analysed by FACS analysis. To this end, stable human full-length HVEM-transfected HEK293F cells were put at 10×10⁶ cells/mL in ice-chilled phosphate-buffered saline containing 0.1% BSA (Sigma)/0.05% NaN₃ (PBS/BSA/NaN₃) supplemented with 50 μg/mL human IgGs (blocking possible Fcγ receptors; Sigma) for 10 minutes at 4° C. Then, 10 μL/tube (i.e., 0.1×10⁶ cells) of these cells were incubated with or without 100 μL purified chimeric mouse/human anti-HVEM antibody at 10 μg/mL/tube or a human IgG4/κ (Sigma) negative isotype control at 10 μg/mL/tube for 30 minutes at 4° C. After this (i.e., without washing), cells were subsequently incubated with 1 μg/mL soluble biotinylated human BTLA (Sino Biological Inc), with 10 μg/mL soluble his-tagged human CD160 (Sino Biological Inc), with 1 μg/mL soluble his-tagged human LIGHT (Sino Biological Inc), or with 0.1 μg/mL soluble biotinylated human TNFβ (Sino Biological Inc) in PBS/BSA/NaN₃ for 30 minutes at 4° C. After extensive washing in PBS/BSA/NaN₃, cells were incubated with 1:200 diluted PE-conjugated streptavidin (detection BTLA and TNFβ; Jackson ImmunoResearch) or with biotinylated mouse anti-his antibody (detection CD160 and LIGHT; R&D Systems) at 10 μg/mL for 30 minutes at 4° C. After extensive washing in PBS/BSA/NaN₃, cells were incubated with 1:200 diluted PE-conjugated streptavidin (detection CD160 and LIGHT; Jackson ImmunoResearch) for 30 minutes at 4° C. After extensive washing in PBS/BSA/NaN₃, cells were fixed in 4% formaldehyde in PBS/BSA/NaN₃ for 30 minutes at 4° C. Binding of ligands BTLA, CD160, LIGHT and TNFβ on membrane human HVEM was measured using a flow cytometer (model FACSCalibur; BD Biosciences). For comparison, purified BTLA/HVEM blocking mouse anti-human HVEM antibody counterparts no. 36H12, 45H6, 48H6, 11H7, and 49G4 at 10 μg/mL/tube and a mouse IgG1 (BD Biosciences) negative isotype control at 10 μg/mL/tube were run in parallel.

[2] = molecular target: T1, membrane-bound full-length human HVEM …; assay: FACS, Ab 10 µg/mL then biotinylated TNFβ on HVEM-HEK293F
Procedure: as §1

[3] = molecular target: T1, membrane-bound full-length human HVEM …; assay: FACS titration on HVEM-HEK293F, half-maximum binding
Procedure: In order to determine the relative binding affinity of purified BTLA/HVEM blocking chimeric mouse/human anti-human HVEM antibodies no. 36H12, 45H6, 48H6, 11H7, and 49G4 for human HVEM, FACS analysis was used.
To this end, stable human full-length HVEM-transfected HEK293F cells (clone no. 128; see Example 1(a) above) were put at 10×10⁶ cells/mL in ice-chilled PBS containing 0.1% BSA (Sigma)/0.05% NaN₃ (PBS/BSA/NaN₃) supplemented with 50 μg/mL human IgGs (blocking possible Fcγ receptors; Sigma) for 10 minutes at 4° C. Then, 10 μL/tube (i.e., 0.1×10⁶ cells) of these cells were incubated with or without 100 μL titrated (in PBS/BSA/NaN₃) purified BTLA/HVEM blocking chimeric mouse/human anti-human HVEM antibody/tube for 30 minutes at 4° C. After extensive washing in PBS/BSA/NaN₃, cells were subsequently incubated with 1:200 diluted PE-conjugated goat anti-human IgG Fcγ-specific antibodies (Jackson ImmunoResearch) for 30 minutes at 4° C. After extensive washing in PBS/BSA/NaN₃, cells were fixed in 4% formaldehyde in PBS/BSA/NaN₃ for 30 minutes at 4° C. Binding (geo-mean fluorescence intensity) of chimeric mouse/human anti-human HVEM antibodies no. 36H12, 45H6, 48H6, 11H7, and 49G4 on membrane human HVEM was measured using a flow cytometer (FACSCalibur; BD Biosciences). For comparison, purified BTLA/HVEM blocking mouse anti-human HVEM antibody counterparts no. 36H12, 45H6, 48H6, 11H7, and 49G4 were run in parallel, and their binding was monitored as described in Example 2 (a).

[4] = molecular target: T1, membrane-bound full-length human HVEM …; assay: FACS, biotinylated BTLA-Fc pre-bound, then Ab 20 µg/mL
Procedure: (§2) Generation of human ‘full-length’ HVEM-transfected HEK293F cells (clone no. 128) is described in Example 1a. Displacement of pre-bound soluble human BTLA, soluble human CD160, soluble human LIGHT, and soluble human TNFβ from surface human HVEM-transfected cells was analysed by FACS analysis. To this end, stable human full-length HVEM-transfected HEK293F cells were put at 10×10⁶ cells/mL in ice-chilled phosphate-buffered saline containing 0.1% BSA (Sigma)/0.05% NaN₃ (PBS/BSA/NaN₃) supplemented with 50 μg/mL human IgGs (blocking possible Fcγ receptors; Sigma) for 10 minutes at 4° C. Then, 10 μL/tube (i.e., 0.1×10⁶ cells) of these cells were incubated without or with 50 μL soluble biotinylated human BTLA-human Fcγ fusion protein (Sino Biological Inc) at 2 μg/mL/tube, with soluble his-tagged human CD160 (Sino Biological Inc) at 20 μg/mL/tube, with soluble his-tagged human LIGHT (Sino Biological Inc) at 2 μg/mL/tube, or with soluble biotinylated human TNFβ (Sino Biological Inc) at 0.2 μg/mL/tube in PBS/BSA/NaN₃ for 30 minutes at 4° C. After this (i.e., without washing), cells were subsequently incubated with 50 μL purified chimeric mouse/human anti-HVEM antibody at 20 μg/mL/tube or a human IgG4/κ (Sigma) negative isotype control at 20 μg/mL/tube for 30 minutes at 4° C. […] After extensive washing in PBS/BSA/NaN₃, cells were incubated with 1:200 diluted PE-conjugated streptavidin (detection CD160 and LIGHT; Jackson ImmunoResearch) for 30 minutes at 4° C. After extensive washing in PBS/BSA/NaN₃, cells were fixed in 4% formaldehyde in PBS/BSA/NaN₃ for 30 minutes at 4° C. Residual binding of ligands BTLA, CD160, LIGHT and TNFβ on membrane human HVEM was measured using a flow cytometer (model FACSCalibur; BD Biosciences).

[5] = molecular target: T1, membrane-bound full-length human HVEM …; assay: FACS, biotinylated TNFβ pre-bound, then Ab 20 µg/mL
Procedure: as §2

[6] = molecular target: T2, membrane-bound 'CRD1 truncated' human …; assay: FACS, undiluted hybridoma supernatant, CRD1 truncated HVEM on HEK293F
Procedure: Generation of human ‘full-length’ HVEM-transfected HEK293F cells (clone no. 128) is described in Example 1a. […] After 72 hours, surface human HVEM expression on transfected cells was analysed by FACS analysis. To this end, stable human full-length HVEM-transfected HEK293F cells and transient human ‘CRD1 truncated’ HVEM-transfected HEK293F cells were put at 10×10⁶ cells/mL in ice-chilled phosphate-buffered saline containing 0.1% BSA (Sigma)/0.05% NaN₃ (PBS/BSA/NaN₃) supplemented with 50 μg/mL human IgGs (blocking of possible Fcγ receptors; Sigma) for 10 minutes at 4° C. Then, 10 μL/tube (i.e., 0.1×10⁶ cells) of these cells were incubated with 100 μL undiluted hybridoma supernatant/tube for 30 minutes at 4° C. Phycoerythrin (PE)-conjugated mouse anti-human HVEM antibody (clone eBioHVEM-122; eBioscience) at 1:20 was run as a positive control antibody. After extensive washing in PBS/BSA/NaN₃, cells were subsequently incubated with 1:200 diluted PE-conjugated goat anti-mouse IgG Fcγ-specific antibodies (Jackson ImmunoResearch) for 30 minutes at 4° C. After extensive washing in PBS/BSA/NaN₃, cells were fixed in 2% formaldehyde in PBS/BSA/NaN₃ for 30 minutes at 4° C. Binding of antibodies was measured using a flow cytometer (model FACSCalibur; BD Biosciences).

Row | Binder | % blocking of ligand binding [1] | % blocking of ligand binding [2] | EC50 [3] | % displacement of pre-bound ligand [4] | % displacement of pre-bound ligand [5] | binding result [6]
1 | chimeric mouse/human IgG4/kappa anti-human HVEM antibody no. 11H7 (antibody, V domains shown, 40/41 within the entry; Stabilized human IgG4 (S239P) already in the entry; also called chimeric 11H7) VH: QVQLKQSGPGLVQPSQSLSITCTVSGFSLTIYGVHWVRQSPGKGLEWLGVIWSGGSTDYNAAFISRLSISKDNSKSQVFFKMNSLQANDTAIYYCARRDYGSRSFYYAMDYWGQGTSVTVSS VL: EIVLTQSPALMAASPGEKVTITCSVSSSISSSNLHWYQQKSETSPKPWIYGTSNLASGVPVRFSGSGSGTSYSLTISSMEAEDAATYYCQQWSSYPLTFGGGTKLEIKR | > 95% | > 55% | 0.63 µg/mL | > 95% | < 20% | –
2 | mouse anti-human HVEM antibody no. 11H7 (antibody, mouse IgG1, V domains shown, mouse IgG1/kappa; also called 11H7 (mouse)) VH: QVQLKQSGPGLVQPSQSLSITCTVSGFSLTIYGVHWVRQSPGKGLEWLGVIWSGGSTDYNAAFISRLSISKDNSKSQVFFKMNSLQANDTAIYYCARRDYGSRSFYYAMDYWGQGTSVTVSS VL: EIVLTQSPALMAASPGEKVTITCSVSSSISSSNLHWYQQKSETSPKPWIYGTSNLASGVPVRFSGSGSGTSYSLTISSMEAEDAATYYCQQWSSYPLTFGGGTKLEIK | > 95% | > 60% | 0.532 µg/mL | – | – | no binding
3 | mouse anti-human HVEM antibody no. 45H6 (antibody, mouse IgG1, V domains shown, mouse IgG1/kappa; also called 45H6 (mouse)) VH: DVQLVESGGGLVQPGGSRKLSCAASGFTFSSFGMHWVRQAPEKGLEWVAYISSGNSNIYYVDTVKGRFTISRDNPKNTLFLQMTSLRSEDTAMYYCARKRAYGDYSGFSMDYWGQGTSVTVSS VL: DIVMTQSQKFMSTSVGDRVSVTCKASQNVDTNVAWYQQKPGQSPKALIYSASYRYSGVPDRFTGSGSGTDFTLTISNVQSEDLAEYFCQQYNKFPLTFGGGTKLEIK | > 95% | – | 0.26 µg/mL | – | – | no binding
4 | mouse anti-human HVEM antibody no. 49G4 (antibody, mouse IgG1, V domains shown, mouse IgG1/kappa; also called 49G4 (mouse)) VH: EVQLQQSGAELVKPGASVKLSCRASGFNIKDTYMHWVKQRPEQGLEWIGRIDPARGNTKYDPKFQGKATITADTSSNTAYLQLSSLTSEDTAVYYCASAMDYWGQGTSVTVSS VL: DVLMTQTPLSLPVSLGDQASISCRSSQSIVHSNGNTYLEWFLQKPGQSPKLLIYKVSNRFSGVPDRFSGSGSGTDFTLKISRVEAEDLGVYYCFQGSHVPLTFGAGTKLELK | > 95% | > 85% | 0.266 µg/mL | – | – | no binding
